Experimental data published in patent US8492329B2, “Bioactive peptides and methods of using same” (Compugen Ltd., priority 2007, dated 2013).
Entries after “also recorded” stand apart in the source; their conditions may differ. No end group written: not given here.

Assays:
[1] = biological target: LGR8 (RXFP2) (Homo sapiens, UniProt Q8WXD0); assay: pCRE-β-gal reporter assay in Forskolin-treated CHO-K1 cells transiently transfected with LGR8; type: cell-based; design: expressed in transfected cells; host or cells: CHO-K1 (transient); conditions: 5 uM Forskolin, FIG. 8A-B
LGR8 (RXFP2), sequence (Q8WXD0 whole entry): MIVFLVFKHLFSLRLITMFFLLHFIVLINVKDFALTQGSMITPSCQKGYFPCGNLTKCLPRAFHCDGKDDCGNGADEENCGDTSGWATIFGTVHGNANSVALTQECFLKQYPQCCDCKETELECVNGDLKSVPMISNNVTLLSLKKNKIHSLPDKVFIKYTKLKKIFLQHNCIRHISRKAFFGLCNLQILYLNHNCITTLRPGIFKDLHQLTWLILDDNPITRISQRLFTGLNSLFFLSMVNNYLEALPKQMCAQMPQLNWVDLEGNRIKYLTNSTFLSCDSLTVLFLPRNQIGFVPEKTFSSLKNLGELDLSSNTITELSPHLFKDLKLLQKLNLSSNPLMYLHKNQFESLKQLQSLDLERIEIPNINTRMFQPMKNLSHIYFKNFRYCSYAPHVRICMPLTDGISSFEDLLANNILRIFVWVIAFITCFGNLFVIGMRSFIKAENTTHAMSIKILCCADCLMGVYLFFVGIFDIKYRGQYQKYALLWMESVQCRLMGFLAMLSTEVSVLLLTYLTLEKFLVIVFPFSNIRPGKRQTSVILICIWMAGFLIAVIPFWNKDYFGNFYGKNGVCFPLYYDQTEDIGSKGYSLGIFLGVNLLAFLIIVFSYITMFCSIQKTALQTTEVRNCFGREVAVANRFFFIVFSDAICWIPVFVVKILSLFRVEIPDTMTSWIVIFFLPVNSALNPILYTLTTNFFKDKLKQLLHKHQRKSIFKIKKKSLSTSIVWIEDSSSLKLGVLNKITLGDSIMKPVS
Description: The ability of P74C13V (P74) (SEQ ID NO: 10) and P59C13V (P59) and P59C13V-Amide (P59-Amide) (SEQ ID NO: 6 and 5 respectively) to activate LGR7 (RXFP1) and LGR8 (RXFP2) was further tested by testing the ability of these peptides to influence cAMP activity induced by 5 μM Forskolin in CHO-K1 cells transiently transfected with LGR7/pCRE-β-gal or LGR8/pCRE-β-gal as compared to H2 relaxin and INSL3 respectively.
LGR8 transfected CHO-K1 cells were treated with 5 uM of Forskolin to stimulate cAMP. The cells were then challenged with increasing doses of INSL3 (as positive control), P74C13V (P74) (SEQ ID NO: 10), P59C13V with (P59-Amide) and without (P59) amide (SEQ ID NO: 5 and 6, respectively) and P59S-Amide (P59-S) (SEQ ID NO: 1). […] The results are presented as a percentage of Forskolin activity at various concentrations of the peptide (logarithmic scale). Each point represents three unrelated repeats for each experiment.

[2] = biological target: T1, LGR7 (RXFP1) (Homo sapiens, UniProt Q9HBX9); assay: ACEA RT-CES cell impedance, LGR7 transfected CHO-K1 cells; type: cell-based; design: expressed in transfected cells; host or cells: CHO-K1 (transient); conditions: for dose response of normalized cell index: end point of the experiment, FIG. 16-19; for affinity to LGR7 compared with other ligands: from cell impedance dose response; for effect on cell impedance (normalized cell index): P74C13V 10 uM, H2 Relaxin 1 uM, FIG. 13
T1 sequence (Q9HBX9 1-757): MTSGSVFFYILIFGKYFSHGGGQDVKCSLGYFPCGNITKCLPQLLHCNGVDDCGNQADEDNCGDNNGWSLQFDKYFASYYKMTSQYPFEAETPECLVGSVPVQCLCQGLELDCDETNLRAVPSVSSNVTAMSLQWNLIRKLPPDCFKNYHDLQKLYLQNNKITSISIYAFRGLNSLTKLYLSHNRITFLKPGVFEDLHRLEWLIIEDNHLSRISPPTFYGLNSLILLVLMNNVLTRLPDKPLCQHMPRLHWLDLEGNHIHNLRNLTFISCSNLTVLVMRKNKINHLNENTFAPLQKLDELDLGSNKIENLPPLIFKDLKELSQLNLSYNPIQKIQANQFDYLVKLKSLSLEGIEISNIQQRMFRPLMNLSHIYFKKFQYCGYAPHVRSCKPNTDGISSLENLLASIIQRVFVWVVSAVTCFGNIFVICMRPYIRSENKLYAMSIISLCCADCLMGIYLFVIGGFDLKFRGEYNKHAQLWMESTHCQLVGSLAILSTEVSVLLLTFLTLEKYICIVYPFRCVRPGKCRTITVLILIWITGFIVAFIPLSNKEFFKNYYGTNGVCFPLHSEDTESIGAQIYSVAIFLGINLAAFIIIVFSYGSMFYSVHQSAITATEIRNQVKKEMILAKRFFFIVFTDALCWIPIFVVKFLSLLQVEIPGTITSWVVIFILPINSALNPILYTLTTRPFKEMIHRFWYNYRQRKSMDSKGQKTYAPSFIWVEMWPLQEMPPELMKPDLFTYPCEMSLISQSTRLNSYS
From the text: ACEA RT-CES screen is a noninvasive and label-free assay for GPCRs that can be used with both engineered and nonengineered cell lines. The assay is based on using cell-electrode impedance to measure minute changes in cellular morphology as a result of ligand-dependent GPCR activation and is described in Naichen Yu, et al., Anal. Chem., 78 (1), 35-43, 2006. 10.1021/ac051695v S0003-2700(05)01695-1. The Rho family of small GTPases, which include Rho, Rac, and CDC42, are well-characterized effectors of oncogenes, growth factor and adhesion-mediated signaling pathways and are not classically thought of as being key effectors for GPCRs. Rho family GTPases participate in a number of cellular processes, the main one being regulation and maintenance of specific structures within the actin cytoskeleton framework. […] The current view of the actin cytoskeleton is that of a dynamic and plastic system that is a reflection and manifestation of the intracellular signaling and not simply a static structure designed to maintain cellular architecture. Since GPCRs couple to the actin cytoskeletal network and induce very defined morphological changes, it is possible to harness this information as a functional and biologically relevant readout for GPCRs.
ACEA biosciences; has designed electronic cell sensor arrays embedded in the bottom of the well of microtiter plates that are capable of measuring minute changes in cell morphology. The electronic sensors measure changes in cell-substrate impedance as a result of the disruption of the ionic environment due to the presence of cell and cell morphology dynamics. The main advantages offered by using cell-substrate impedance and cell morphology as a readout are that both exogenously expressed and endogenous receptors can be assayed without the need for engineering the cell with promiscuous G proteins and reporters or labeling the cells with dyes. In addition, since the readout is noninvasive, multiple stimulations with the same ligand or different ligands can be performed to assess events such as desensitization and receptor cross-talk. Finally, another major aspect of using cell-substrate impedance and cell morphology as a readout is that potentially all GPCRs, regardless of the signaling pathways, can be functionally monitored.
Peptides were synthesized by the solid phase peptide synthesis (SPPS) method, cleaved from the resin, and purified by RP-HPLC unless stated otherwise. The peptide's identity was verified by mass spectrometry. Final purity of peptide was >90% as measured by RP-HPLC. Peptides were diluted in Water (DDW—high purity) containing 0.1% BSA. In some cases peptides were dissolved in Tris-HCl buffer (pH8.2). In other cases either the addition of 1% DMSO or a brief sonication was required. All plates were stored at −80 C until use.
Cells: CHOk1 cell-line (ATCC CCL-61). Cells were maintained and propagated in F-12 HAM nutrient mix (Gibco. Cat# 21765-029) supplemented with 10% HI-FBS (Biological Ind. Cat#04-121-1), 2.5 mL of 200 mm L-Glutamine in Saline Solution (Biological Ind. Cat#03-020-1), 5 mL of Penicillin-Streptomycin Solution 10000/mL Penicillin G & 10 mg/mL Streptomycin Sulfate (Biological Ind. Cat#03-031-1).
One day before the transfection 2×10^6 CHO-k1 cells were plated in T75 flask containing 10 mL of complete growth medium. On the transfection date, FUGENE6 transfection reagent was warmed to ambient temperature by 15 minutes incubation at room temperature and mixed prior to use by vortex.
The transfected DNA mix was prepared in another sterile microfuge tube; Total of 2 μg plasmid DNA mixture which is composed of […] of the target GPCR plasmid and of 2 μg of pIRES plasmid carrying eGFP reporter gene.
The plasmids DNA mixture was then added to the transfection reagent tube and incubated 35 min at RT with gently tapping once every 5 minutes to mix the contents. The DNA-FuGene complex was added drop wise to flask and spread by gentle swirling. […]

Row | CRE activation pattern relative to Forskolin [1] | Substance | dose response of normalized cell index [2] | affinity to LGR7 compared with other ligands [2] | effect on cell impedance (normalized cell index) [2]
1 | dual activation pattern effect | GQKGQVGPPGAAVRRAYAAFSV [Peptide P59C13V] | moderate dose response for the high concentrations; also recorded: mild dose dependent activation | significantly lower than that of H2 Relaxin or P74C13V | –
2 | – | AYAAFSV-Amide (AYAAFSV-NH2) [Peptide P59-S-Amide] | moderate dose response for the high concentrations; also recorded: no dose response was demonstrated | – | –
3 | bell-shaped activation pattern | GQKGQVGPPGAAVRRAYAAFSVGRRAYAAFSV-OH [Peptide P74C13V] | clear dose dependent activation | lower than that of H2 Relaxin | stronger than the effect of H2 Relaxin
4 | – | H2 Relaxin: H2 Relaxin (ACS), positive control, known ligand of LGR7 (RXFP1) [reference compound] | clear dose dependent activation | – | capable of activating a cellular response
5 | slight activation pattern | GQKGQVGPPGAAVRRAYAAFSV-Amide (GQKGQVGPPGAAVRRAYAAFSV-NH2) [P59C13V-Amide] | – | – | –
